Assay results reported in patent US8129557B2, “Phosphonic acid diester derivative and method for producing thereof” (priority 2005, dated 2012).

Test system: T1, Cc1cc(=O)oc2cc(NC(=O)CC[C@H](N)C(=O)O)ccc12
T1 construct: purchased Asahi Kasei Co., Ltd. HC-GTP (lot 603AA)
Experiment: Hydrolytic assay of human GGT (Michaelis constant of substrate)
Type: biochemical
Conditions: other: human GGT, substrate concentration 4.0 μM
Experimental: In the experiment, at first, Michaelis constants (Km) for 7-(γ-L-glutamylamino)-4-methylcoumarin as substrate were measured by a fluorescence method [Smith, G. D.; Ding, J. L.; Peters, T. J. Anal. Biochem. 100, 136-139 (1979)] for the hydrolytic activities of E-coli GGT and human GGT.
In the hydrolytic assay of human GGT, the measurement was carried out in the same manner as that in the hydrolytic assay of E-coli GGT, except that the substrate concentration was changed to […] and therefore, the explanation of the common portions was omitted.

Chain of human GGT (Homo sapiens) (chain, as listed by the source): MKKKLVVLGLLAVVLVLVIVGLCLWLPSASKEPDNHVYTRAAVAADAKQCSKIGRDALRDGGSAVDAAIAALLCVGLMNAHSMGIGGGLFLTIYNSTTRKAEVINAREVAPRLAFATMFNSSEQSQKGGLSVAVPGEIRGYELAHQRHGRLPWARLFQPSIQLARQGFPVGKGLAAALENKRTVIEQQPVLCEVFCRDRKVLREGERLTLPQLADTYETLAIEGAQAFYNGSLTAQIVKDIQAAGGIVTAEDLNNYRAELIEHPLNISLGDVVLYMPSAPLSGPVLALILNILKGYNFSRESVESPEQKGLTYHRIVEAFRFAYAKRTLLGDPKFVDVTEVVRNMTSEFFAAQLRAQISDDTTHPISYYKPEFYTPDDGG
Chain of human GGT (Homo sapiens) (chain, as listed by the source): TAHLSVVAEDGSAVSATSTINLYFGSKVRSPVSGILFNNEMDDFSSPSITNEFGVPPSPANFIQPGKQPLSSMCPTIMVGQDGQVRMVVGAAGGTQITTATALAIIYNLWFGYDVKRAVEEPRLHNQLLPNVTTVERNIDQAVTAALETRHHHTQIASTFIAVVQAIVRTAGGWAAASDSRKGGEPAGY

human GGT (Homo sapiens)
Km: 12.6 µM
